The target in the experiment is A/Singapore/INFIMH-16-0019/2016 hemagglutinin with a C-terminal sfGFP, GCN4 trimerization domain and Strep-tag (influenza A virus A/Singapore/INFIMH-16-0019/2016). In words: negative stain electron microscopy.

The term stoichiometry N denotes a count of units in the complex or per binding partner. “A/Singapore/INFIMH-16-0019/2016 hemagglutinin with a C-terminal sfGFP, GCN4 trimerization domain and Strep-tag” showed a stoichiometry N of 3.

These data come from article PMC10966353.
